According to US20180037644A1 (Pfizer, published 2018):

T1: human IL-33 (mm2) (human, UniProt O95760 112-270)
T1 chain: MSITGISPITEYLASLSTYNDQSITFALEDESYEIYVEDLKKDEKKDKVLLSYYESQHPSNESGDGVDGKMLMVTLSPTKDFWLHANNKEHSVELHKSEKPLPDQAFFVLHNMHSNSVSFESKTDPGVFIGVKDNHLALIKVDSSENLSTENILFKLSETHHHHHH

B1: IL33-57 (antibody, human IgG1, kappa, V domains shown)
VH: EVQLVESGGGLVQPGGSLRLSCAASGFTFSSYWMYWVRQAPGKGLEWVASITPNGGNTYYPDSVKGRFTISRDNAKNSLYLQMNSLRAEDTAVYYCARGHYYYTDYSLGYWGQGTLVTVSS
VL: DIQMTQSPSSLSASVGDRVTITCKASQNINKHLDWYQQKPGKAPKLLIYFTNNLQTGVPSRFSGSGSGTDFTLTISSLQPEDFATYYCFQYNNGWTFGGGTKVEIKR
B2: IL33-58 (antibody, human IgG1, kappa, V domains shown)
VH: EVQLVESGGGLVQPGGSLRLSCAASGFTFSSYWMYWVRQAPGKGLEWVASITPLGGNTYYPDSVKGRFTISRDNAKNSLYLQMNSLRAEDTAVYYCARGHYYYTSYSLGYWGQGTLVTVSS
VL: DIQMTQSPSSLSASVGDRVTITCKASQNINKHLDWYQQKPGKAPKLLIYFTNNLQTGVPSRFSGSGSGTDFTLTISSLQPEDFATYYCFQYNNGWTFGGGTKVEIKR
B3: IL33-74 (antibody, human IgG1, kappa, V domains shown)
VH: EVQLVESGGGLVQPGGSLRLSCAASGFTFSSYWMYWVRQAPGKGLEWVASITPNGGNTYYPDSVKGRFTISRDNAKNSLYLQMNSLRAEDTAVYYCARGHYYYTSYSLGYWGQGTLVTVSS
VL: DIQMTQSPSSLSASVGDRVTITCKASQNINDHLDWYQQKPGKAPKLLIYFTNNLQTGVPSRFSGSGSGTDFTLTISSLQPEDFATYYCFQYNNGWTFGGGTKVEIKR
B4: IL33-62 (antibody, human IgG1, kappa, V domains shown)
VH: EVQLVESGGGLVQPGGSLRLSCAASGFTFSSYWMYWVRQAPGKGLEWVASITPNGGDTYYPDSVKGRFTISRDNAKNSLYLQMNSLRAEDTAVYYCARGHYYYTDYSLGYWGQGTLVTVSS
VL: DIQMTQSPSSLSASVGDRVTITCKASQNINKHLDWYQQKPGKAPKLLIYFTNNLQTGVPSRFSGSGSGTDFTLTISSLQPEDFATYYCFQYNNGWTFGGGTKVEIKR
B5: IL33-61 (antibody, human IgG1, kappa, V domains shown)
VH: EVQLVESGGGLVQPGGSLRLSCAASGFTFSSYWMYWVRQAPGKGLEWVASITPNGGETYYPDSVKGRFTISRDNAKNSLYLQMNSLRAEDTAVYYCARGHYYYTDYSLGYWGQGTLVTVSS
VL: DIQMTQSPSSLSASVGDRVTITCKASQNINKHLDWYQQKPGKAPKLLIYFTNNLQTGVPSRFSGSGSGTDFTLTISSLQPEDFATYYCFQYNNGWTFGGGTKVEIKR
B6: IL33-75 (antibody, human IgG1, kappa, V domains shown)
VH: EVQLVESGGGLVQPGGSLRLSCAASGFTFSSYWMYWVRQAPGKGLEWVASITPNGGNTYYPDSVKGRFTISRDNAKNSLYLQMNSLRAEDTAVYYCARGHYYYTSYSLGYWGQGTLVTVSS
VL: DIQMTQSPSSLSASVGDRVTITCKASQNIDKHLDWYQQKPGKAPKLLIYFTNNLQTGVPSRFSGSGSGTDFTLTISSLQPEDFATYYCFQYNNGWTFGGGTKVEIKR
B7: 9B3-162 (antibody, human IgG1, kappa, V domains shown)
VH: EVQLVETGGGLVQPGRSLKLSCVASGFTFSNYWMYWIRQAPGMGLEWVSSINNDGGNTYYLDSVKGRFTISRNNAENTVYLQMNSLRSEDTATYYCAKGHYYYSSYSFGYWGQGTLVTVSS
VL: DIQMTQSPSVLSASVGDRVTLSCKASHNINKHLDWYQQKVGEAPKLLIYFTNNLQTGIPSRFSGSGSGTDYTLTISSLQPEDVATYFCFQYNSGWTFGQGTKVEIKR
B8: 7E8H/9B3K (antibody, human IgG1, kappa, V domains shown)
VH: EVQLVETGGGLVQPGRSLKLSCKTSGFTFSSYWMYWIRQAPGKGLEWVSSITPNGGNTYYPDSVKGRFTISRDNAENTIYLQMSSLRSEDTATYFCAKGHYYYTSYSLGYWGQGSLVTVSS
VL: DIQMTQSPSVLSASVGDRVTLSCKASHNINKHLDWYQQKVGEAPKLLIYFTNNLQTGIPSRFSGSGSGTDYTLTISSLQPEDVATYFCFQYNSGWTFGQGTKVEIKR

Columns and labels:
human IL-33 (mm2) [1] = biological target: T1, human IL-33 (mm2); assay: cell-based or functional assay
human IL-33 (mm2) [2] = biological target: T1, human IL-33 (mm2); assay: cell-based or functional assay
human IL-33 (mm2) [3] = biological target: T1, human IL-33 (mm2); assay: BIAcore, IgG captured by anti-human Fc, 125 nM IL-33 (mm2)
Description: Binding to human and cynomolgus monkey IL-33 was measured by surface plasmon resonance using a BIAcore T200 instrument. An anti-human Fc antibody was immobilized on a CM5 chip, and anti-IL-33 antibodies were captured.

| Binder | IC50, HEK293 ST2 NFkB (human IL-33 (mm2) [1]) [pM] | estimated IC50, HEK293 ST2 NFkB (human IL-33 (mm2) [2]) [pM] | koff (human IL-33 (mm2) [3]) [s⁻¹] |
| --- | --- | --- | --- |
| B1 | 310 | – | – |
| B2 | 27 | – | – |
| B3 | 174 | – | – |
| B4 | 885 | – | – |
| B5 | 595 | – | – |
| B6 | 156 | – | – |
| B7 | – | 67 | 0.000642 |
| B8 | – | 15 | 0.000385 |
